pKd: −log10 of the molar value.

The experiment deals with microtubules (MTs) polymerised from porcine brain tubulin, taxol-stabilised (porcine) (UniProt P02550). Kind of experiment: co-sedimentation; GST-rMap7D2 proteins incubated with 0.4 mg/ml taxol-stabilised MTs in polymerization buffer (80 mM PIPES/NaOH pH 6.8, 1 mM MgCl2, 1 mM EGTA, 1 mM GTP) with 15 μM taxol, 20 min at 37°C; centrifuged at 100,000g for 30 min at 37°C through a 50% sucrose cushion; supernatant and pellet by SDS-PAGE, CBB staining, densitometer; Scatchard analysis.

Usually pKd stands for the Kd on a negative log10 scale, so that one unit is a factor of ten. As a reminder, the stoichiometry N is the number of molecules, sites or subunits per partner or assembly. On to “GST-rMap7D2 (full length) (from UniProt D4A4L4 1-763) (natural protein)”, for which the pKd is 6.22. For the same substance, the stoichiometry N (scale: tubulin α/β heterodimers per GST-rMap7D2 molecule) worked out at 10.

(Values after paper PMC9039348.)
